Where a chain is given by its changes, count along the chain named.
B1: Mouse SP34 (antibody, V domains shown)
VH: EVQLVESGGGLVQPKGSLKLSCAASGFTFNTYAMNWVRQAPGKGLEWVARIRSKYNNYATYYADSVKDRFTISRDDSQSILYLQMNNLKTEDTAMYYCVRHGNFGNSYVSWFAYWGQGTLVTVSA
VL: QAVVTQESALTTSPGETVTLTCRSSTGAVTTSNYANWVQEKPDHLFTGLIGGTNKRAPGVPARFSGSLIGDKAALTITGAQTEDEAIYFCALWYSNLWVFGGGTKLTVL
notes: also called SP34 mouse monoclonal antibody; MSP34
B2: SMP1913-F09 (antibody, V domains shown)
VH: not shown
VL: QTVVTQEPSLTVSPGGTVTLTCGSSTGAVTSGYYPNWFQQKPGQAPRGLIGGTKFLAPGTPARFSGSLLGGKAALTLSGVQPEDEAEYYCALWYSNRWVFGGGTQLTVTG
notes: human IgG1, lambda; also called hSP34-Hc1 + SP34-Lc3; hSP34-HC1+hSP34-LC3
B3: SRP2037:A03 (scFv, not shown: small tags and cut ends)
scFv: EVQLVESGGGLVKPGGSLRLSCAASGFTFSKYAMNWVRQAPGKGLEWVARIRSKYNNYATYYADSVKDRFTISRDDSKNTAYLQINSLKTEDTAVYYCVRHGNFGNSYTSYWAYWGQGTPVTVSSGGGGSGGDGSGGGGSQTVVTQEPSLTVSPGGTVTLTCGSSTGAVTSGYYPNWLQQKPGQAPRGLIGGTKFLAPGTPARFSGSLLGGKAALTLSGVQPEDEAEYYCALWYSNRWVFGGGTQLTVT
notes: tested as scFvFc
B4: SRP2037:A05 (scFv, not shown: small tags and cut ends)
scFv: B3 scFv with S30N, K78R, I85M, T90A, T109I
notes: tested as scFvFc
B5: SRP2037:A04 (scFv, not shown: small tags and cut ends)
scFv: B3 scFv with S30N, N79S, I85M, V99A, T109I, Y174H, Y234C
notes: tested as scFvFc
B6: SMP1913-F10 (antibody, V domains shown)
VH: not shown
VL: QTVVTQEPSFSVSPGGTVTLTCGSSTGAVTSGYYPNWYQQTPGQAPRGLIGGTKFLAPGVPDRFSGSLLGNKAALTITGAQADDESDYYCALWYSNRWVFGGGTQLTVTG
notes: human IgG1, lambda; also called hSP34-Hc1 + SP34-Lc4
B7: SMP1913-F05 (antibody, V domains shown)
VH: not shown
VL: B6 VL
notes: human IgG1, lambda; also called SP34-Hc + SP34-Lc4
B8: SMP1913-G04 (antibody, human IgG1, lambda, V domains shown)
VH: EVQLLESGGGLVQPGGSLRLSCAASGFTFNKYAMNWVRQAPGKGLEWVARIRSKYNNYATYYADSVKDRFTISRDDSKNTAYLQMNSLRAEDTAVYYCVRHGNFGNSYISYWAYWGQGTLVTVSS
VL: B6 VL
notes: human IgG1, lambda; also called hSP34-Hc2 + SP34-Lc4
B9: SMP1913-F03 (antibody, V domains shown)
VH: not shown
VL: QSAVTQPRSVSGSPGQSVTISCGSSTGAVTSGYYPNWYQQHPGKAPKGMIGGTKFLAPGVPDRFSGSLLGNTASLTISGLQAEDEADYYCALWYSNRWVFGGGTQLTVTG
notes: human IgG1, lambda; also called SP34-Hc + SP34-Lc2
B10: SMP1913-F08 (antibody, V domains shown)
VH: not shown
VL: B9 VL
notes: human IgG1, lambda; also called hSP34-Hc1 + SP34-Lc2
B11: SMP1913-F02 (antibody, V domains shown)
VH: not shown
VL: EIVVTQSPGTLSLSPGERATLSCGSSTGAVTSGYYPNWYQQKPGQAPRGLIGGTKFLAPGIPDRFSGSLLGTDATLTISRLEPEDFAVYYCALWYSNRWVFGQGTKLEIKR
notes: human IgG1, kappa; also called SP34-Hc + SP34-Lc1
B12: SMP1913-F07 (antibody, V domains shown)
VH: not shown
VL: B11 VL
notes: human IgG1, kappa; also called hSP34-Hc1 + SP34-Lc1
B13: SMP1913-F04 (antibody, V domains shown)
VH: not shown
VL: B2 VL
notes: human IgG1, lambda; also called SP34-Hc + SP34-Lc3
B14: SMP1913-G08 (antibody, human IgG1, lambda, V domains shown)
VH: B8 VH with L5V, G16R, A23T, V37F, N79S, T80I, R89K, A90T
VL: B2 VL
notes: human IgG1, lambda; also called hSP34-Hc3 + SP34-Lc3
B15: SMP1913-G05 (antibody, human IgG1, lambda, V domains shown)
VH: B8 VH with L5V, G16R, A23T, V37F, N79S, T80I, R89K, A90T
VL: not shown
notes: human IgG1, lambda; also called hSP34-Hc3 + SP34-Lc
B16: SMP1913-H02 (antibody, V domains shown)
VH: not shown
VL: B2 VL
notes: human IgG1, lambda; also called hSP34-Hc4 + SP34-Lc3

molecular target: T1, human CD3 epsilon (Acro Cat #CDE-H5223) (human, UniProt P07766 23-126); assay: ELISA, coated antigen
T1 construct: Bought recombinant protein; also called rhCD3E
T1 sequence (P07766 23-126 limits assumed): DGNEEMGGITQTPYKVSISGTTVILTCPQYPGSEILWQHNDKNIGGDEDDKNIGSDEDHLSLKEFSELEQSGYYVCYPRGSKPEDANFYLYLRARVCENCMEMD

Compared with B1, B2 is 8.7-fold lower in EC50: 251 nM for the first, 28.9 nM for the second.

Going from B1 to B2, the “ELISA Bmax (RLU)” value rises from 123000 RLU to 1.62e+06 RLU.

molecular target: T2, cynomolgus CD3 epsilon (cynomolgus monkey, UniProt Q95LI5 22-117, limits assumed); assay: ELISA, coated antigen
T2 construct: Recombinant protein; also called cyno CD3E
T2 sequence: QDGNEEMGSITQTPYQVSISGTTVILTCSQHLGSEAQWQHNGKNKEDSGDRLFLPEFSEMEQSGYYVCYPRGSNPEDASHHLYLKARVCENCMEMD

First: B1
Second: B2
The EC50 of the first is 9.9-fold higher: 352 nM for the first, 35.6 nM for the second.

Going from B1 to B2, the “ELISA Bmax (RLU)” value rises from 116000 RLU to 1.57e+06 RLU.

molecular target: CD3-GE; assay: ELISA, coated antigen

Compared with B1, B2 is 1.9-fold higher in EC50: 574 nM for the first, 1110 nM for the second.

First: B1
Second: B2
The “ELISA Bmax (RLU)” value of the first is lower: 3610 RLU for the first, 1.7e+06 RLU for the second.

molecular target: T3, human CD3 on T-cell lines (CD3-expressing Jurkat cells; HUT78 cells) (human, UniProt P07766 23-207); assay: flow cytometry, Jurkat cells
T3 construct: On cells it stands in the CD3/TCR complex
T3 sequence (P07766 23-207 limits assumed): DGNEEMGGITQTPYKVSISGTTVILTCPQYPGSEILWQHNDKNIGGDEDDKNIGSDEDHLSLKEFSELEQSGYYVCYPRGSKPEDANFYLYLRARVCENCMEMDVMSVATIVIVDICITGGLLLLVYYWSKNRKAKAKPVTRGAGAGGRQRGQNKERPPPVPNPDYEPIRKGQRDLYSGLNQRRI

First: B3
Second: B4
The Bmax of the first is lower: 4540 for the first, 5900 for the second.

With B5 the Bmax was 4800.

B3 and B4 are within 1.5-fold of each other in Kd: 0.16 nM for the first, 0.12 nM for the second.

Work on B5 yielded a Kd of 1.7 nM.

molecular target: T4, cynomolgus CD3 delta-epsilon heterodimer (Acro Cat #CDD-C52W4) (cynomolgus monkey, UniProt Q95LI8 22-105); assay: single-point ELISA; signal on cyCD3DE over Fc
T4 construct: Bought; also called cyCD3DE
Protocol: (§1) Following small-scale cell-free protein synthesis (60 μL reactions), each reaction was diluted 1:50 and tested for binding to CD3 protein by ELISA. Briefly, human CD3 delta-epsilon-Fc heterodimer (CD3DE-Fc, Acro Biosystems, Cat #CDD-H52WO), cynomolgus CD3 delta-epsilon heterodimer (CD3DE, Acro Cat #CDD-C52W4) and human IgG1 Fc (Acro Biosystems, Cat #FCC-H5214) were coated to 384-well Maxisorp plates in 0.2M sodium bicarbonate-carbonate pH 9.4 and blocked with […] in PBST (phosphate buffer saline, […], diluted from Teknova Cat #P2192). Antibodies expressed in CF were diluted 1:50 in 0.20% BSA in PBST and were incubated on the […] plates, washed, and detected with HRP-conjugated anti-human Fab antibodies (Jackson ImmunoResearch, West Grove, PA) and Pierce Pico Supersignal ELISA substrate (ThermoFisher Scientific).

T4 sequence (Q95LI8 22-105, stated change not applied, one chain of several): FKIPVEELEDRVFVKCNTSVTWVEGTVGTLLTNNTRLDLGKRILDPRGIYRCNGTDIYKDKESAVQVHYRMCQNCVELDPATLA

Going from B3 to B4, the “cyCD3DE/Fc, ELISA S/N” value falls from 62.1 to 28.9.

With B5 the “cyCD3DE/Fc, ELISA S/N” value was 19.3.

molecular target: T1, human CD3 epsilon (Acro Cat #CDE-H5223); assay: SPR (Biacore), scFvFc captured, rhCD3E analyte
Protocol: Anti-Fab or anti-Fc polyclonal antibodies were immobilized onto a CM5 chip (GE Life Sciences) using amine coupling chemistry (from Amine Coupling Kit, GE Life Sciences). The immobilization steps were carried out at a flow rate of 25 μl/min in 1×HBS-EP+ buffer (GE Life Sciences; 10× Stock diluted before use). The sensor surfaces were activated for 7 min with a mixture of NHS (0.05 M) and EDC (0.2 M). The Anti-Fab or Anti-Fc antibodies were injected over all 4 flow cells at a concentration of 25 μg/mL in 10 mM sodium acetate, pH 4.5, for 7 min. Ethanolamine (1 M, pH 8.5) was injected for 7 min to block any remaining activated groups.
Off-rate and kinetic binding experiments were performed at 25° C. using 1×HBS-EP+ buffer. Test and control antibodies were injected over the anti-Fab or anti-Fc surface at concentrations of 5-10 μg/mL for 12 seconds at a flow rate of 10 μL/min on flow cells 2, 3 and 4, followed by a buffer wash for 30 seconds at the same flow rate. […] After capturing ligand (antibody) on the anti-Fc or anti-Fab surface, the analyte (human CD3 epsilon, Acro Cat #CDE-H5223) was bound for 180 seconds, followed by a 600 second dissociation phase at a flow rate of 50 μL/min. Between each ligand capture and analyte binding cycle, regeneration was carried out using two injections of 10 mM Glycine pH 2.0 for 30 seconds at 30 μL/min, followed by a 30 second buffer wash step.
The data was fit with the Biacore T200 Evaluation software, using a 1-1 Langmuir binding model. KD (affinity, nM) was determined as a ratio of the kinetic rate constants calculated from the fits of the association and dissociation phases.

Going from B3 to B4, the Kd falls from 1.23 nM to 0.712 nM (1.7-fold). The second binds more tightly here.

With B5 the Kd was 0.367 nM.

B3 and B4 are within 1.5-fold of each other in koff: 0.000235 s⁻¹ for the first, 0.000157 s⁻¹ for the second.

B5 showed a koff of 3.27e-06 s⁻¹.

molecular target: T5, human CD3 delta-epsilon-Fc heterodimer (Acro Biosystems, Cat #CDD-H52WO) (human, UniProt P04234 22-105); assay: single-point ELISA; signal on huCD3DE-Fc over Fc
T5 construct: Bought; also called CD3DE-Fc; huCD3DE-Fc; not shown: Fc
Protocol: as §1

T5 sequence (chain, as listed by the source mutant, chain 1 of 2): as the sequence (P07766 23-126 limits assumed) above
T5 sequence (P04234 22-105, stated change not applied, chain 2 of 2): as the sequence (Q95LI8 22-105, stated change not applied, one chain of several) above, with V5I, K15N, V20I, T32S, N33D, N34I, A64T, N74S, L83V counted along it

First: B3
Second: B4
The “huCD3DE-Fc/Fc, ELISA S/N” value of the first is higher: 55.1 for the first, 21.2 for the second.

With B5 the “huCD3DE-Fc/Fc, ELISA S/N” value was 14.7.

molecular target: T3, human CD3 on T-cell lines …; assay: flow cytometry; signal on CD3+ Jurkat over CD3- Jurkat RT3-T3.5 cells
Protocol: A high-throughput primary screen was performed to rapidly assess cell binding of antibodies produced in small-scale (60 μL) cell-free reactions. In this screen, four components are combined in equal volumes to a final volume of 100 μL/well in a U-bottom 96-well plate (Greiner Cat #650201) or flat bottom 384 well plate (Greiner Cat #781201). […] Plates are then incubated on ice for one hour. Cells are pelleted by spinning at 1500×g for 5 minutes and resuspended in assay buffer. High-throughput flow cytometry is then performed on resuspended cells on a FACS instrument (BD Biosciences FACS Canto II or BD Biosciences LSR II) and data is analyzed with FlowJo software. Antibody binding is assessed by the proportional level of secondary antibody signal (presumably due to binding to our antibody of interest) on Jurkat CD3-positive cells compared to the signal on Jurkat RT3.T3.5 CD3-negative cells.

Compared with B6, B7 is lower in “FACS S/N (Jurkat/Jurkat RT3-T3.5 binding)” value: 1 for the first, 0.9 for the second.

B8 and B9 are the same in “FACS S/N (Jurkat/Jurkat RT3-T3.5 binding)” value: 1 for the first, 1 for the second.

B10 and B11 are the same in “FACS S/N (Jurkat/Jurkat RT3-T3.5 binding)” value: 0.9 for the first, 0.9 for the second.

First: B12
Second: B2
The “FACS S/N (Jurkat/Jurkat RT3-T3.5 binding)” value of the first is lower: 0.8 for the first, 6.2 for the second.

Going from B13 to B14, the “FACS S/N (Jurkat/Jurkat RT3-T3.5 binding)” value falls from 5.1 to 1.

Going from B15 to B16, the “FACS S/N (Jurkat/Jurkat RT3-T3.5 binding)” value rises from 0.8 to 1.

Reference: US20240124585A1 (SUTRO BIOPHARMA, published 2024)
